B1: LamB (natural protein, UniProt P02943 1-446, looked up)
chain: MMITLRKLPLAVAVAAGVMSAQAMAVDFHGYARSGIGWTGSGGEQQCFQTTGAQSKYRLGNECETYAELKLGQEVWKEGDKSFYFDTNVAYSVAQQNDWEATDPAFREANVQGKNLIEWLPGSTIWAGKRFYQRHDVHMIDFYYWDISGPGAGLENIDVGFGKLSLAATRSSEAGGSSSFASNNIYDYTNETANDVFDVRLAQMEINPGGTLELGVDYGRANLRDNYRLVDGASKDGWLFTAEHTQSVLKGFNKFVVQYATDSMTSQGKGLSQGSGVAFDNEKFAYNINNNGHMLRILDHGAISMGDNWDMMYVGMYQDINWDNDNGTKWWTVGIRPMYKWTPIMSTVMEIGYDNVESQRTGDKNNQYKITLAQQWQAGDSIWSRPAIRVFATYAKWDEKWGYDYTGNADNNANFGKAVPADFNGGSFGRGDSDEWTFGAQMEIWW
modifications: 35S-methionine
notes: LamB, the 18-stranded outer membrane protein used as a model substrate; Gunasinghe et al., 2018; Thewasano et al., 2023) for the substrate constructs; also called trimeric-LamB; source: in vitro translated in rabbit reticulocyte lysate with 35S-methionine, assembled into EMM
B2: OmpF (natural protein, UniProt P02931 1-362, looked up)
chain: MMKRNILAVIVPALLVAGTANAAEIYNKDGNKVDLYGKAVGLHYFSKGNGENSYGGNGDMTYARLGFKGETQINSDLTGYGQWEYNFQGNNSEGADAQTGNKTRLAFAGLKYADVGSFDYGRNYGVVYDALGYTDMLPEFGGDTAYSDDFFVGRVGGVATYRNSNFFGLVDGLNFAVQYLGKNERDTARRSNGDGVGGSISYEYEGFGIVGAYGAADRTNLQEAQPLGNGKKAEQWATGLKYDANNIYLAANYGETRNATPITNKFTNTSGFANKTQDVLLVAQYQFDFGLRPSIAYTKSKAKDVEGIGDVDLVNYFEVGATYYFNKNMSTYVDYIINQIDSDNKLGVGSDDTVAVGIVYQF
modifications: 35S-methionine
notes: OmpF, the 16-stranded outer membrane protein used as a model substrate; Gunasinghe et al., 2018; Thewasano et al., 2023) for the substrate constructs; source: in vitro translated in rabbit reticulocyte lysate with 35S-methionine, assembled into EMM

Target: the molecule itself
Experiment: native gel or EMSA; EMM assembly assay: 35S-labelled in vitro translated substrate incubated with EMM at 30°C for 15, 45 or 90 min, EMM solubilised with 1.5% DDM, BN-PAGE, radio-imaging; homotrimer at approximately 160 kDa

| Protein | stoichiometry N |
| --- | --- |
| B1 | 3 |
| B2 | 3 |

Reference: paper doi:10.1101/2024.10.31.621230 (bioRxiv, 2024)
